Data from the RNAGym collection of RNA variant scans (doi:10.7554/elife.80360).

B1: CPEB3 Ribozyme (parent)
chain: GGGGGCCACAGCAGAAGCGUUCACGUCGCGGCCCCUGUCAGAUUCUGGUGAAUCUGCGAAUUCUGCUGU

Variants of: B1
Assay: self-cleavage, relative activity (ratio to wild type); higher = more cleavage; co-transcriptional

Variant | self-cleavage
U26A A59G | 0.923
G25U C33U | 0.137
G25U C33A | 0.175
G25U C33G | 0.128
U26A G56C | 0.357
U26A G56U | 0.752
U26C G37U | 0.205
U26C G37A | 0.317
G25U | 0.172
G25U G31C | 0.191
G25U G31A | 0.163
G25U G31U | 0.182
G25U U46A | 0.105
G25U U46C | 0.179
G25U U46G | 0.205
U26C G56U | 0.854
U26C G56C | 0.634
U26G G48U | 0.923
U26G G37U | 0.185
U26G G37A | 0.21
G25C U62G | 0.153
G25C U62A | 0.132
G25C U62C | 0.158
U26G C27U | 0.605

Variant | self-cleavage
U26G C27G | 0.34
U26G C29U | 0.318
U26G C29G | 0.414
G25U U44A | 0.136
G25U U44G | 0.146
G25U U44C | 0.105
U26G C45A | 0.951
U26G C45G | 0.87
U26C C57A | 0.209
U26C C57G | 0.268
U26C C39G | 0.939
U26C C39U | 0.85
G25U A40U | 0.208
G25U A40G | 0.114
G25U A40C | 0.183
U26A C29G | 0.307
U26G G65A | 0.643
U26G G65C | 0.646
U26A U55C | 0.712
U26A U55G | 0.44
U26C G58C | 0.963
U26C G58U | 0.993
U26C G58A | 0.937
U26G G50A | 0.927

Variant | self-cleavage
U26G G50C | 0.962
U26G G50U | 0.928
U26A C27U | 0.429
U26A C27G | 0.121
G25U G50A | 0.144
G25U G50U | 0.151
G25U G50C | 0.189
G25C U64A | 0.132
U26C U62A | 0.832
U26C U62C | 0.732
U26G A51G | 0.787
U26G A51C | 0.838
U26G A51U | 0.871
G25U C34G | 0.196
G25U C34U | 0.151
G25U U36C | 0.103
G25U U36A | 0.125
U26A C57G | 0.216
U26A C57U | 0.39
U26A C33G | 0.395
U26C U53C | 0.882
U26A A51U | 0.813
U26G C32G | 0.234
U26G C32A | 0.552

Variant | self-cleavage
G25U U67C | 0.212
G25U U67A | 0.145
G25U U67G | 0.237
U26G C34U | 0.95
U26G C34G | 0.409
U26A U44A | 0.843
U26A U44G | 0.85
U26C C34G | 0.492
G25U C29A | 0.198
G25U C29G | 0.161
G25U G28A | 0.141
G25U G28C | 0.159
U26C U44A | 0.953
U26C U44C | 0.941
U26C U44G | 1.02
G25U A52G | 0.146
G25U A52C | 0.246
G25U A52U | 0.199
U26C G68A | 1.03
U26C G68U | 1.01
U26C A40G | 0.949
U26C A40C | 0.455
U26C A40U | 0.733
G25U G37C | 0.0933

Variant | self-cleavage
G25U A42U | 0.163
G25U A42C | 0.17
U26G A59C | 0.36
U26G A59G | 0.959
G25U A59C | 0.217
G25U A59U | 0.199
U26C C35G | 0.375
U26C C35U | 0.964
U26A U46A | 0.906
U26A U46G | 0.895
U26A A40G | 0.7
U26A A40C | 0.32
U26C G41A | 0.673
U26C G41C | 0.708
U26C G41U | 0.8
U26G G28C | 0.133
U26G A52G | 0.914
U26G A52C | 0.912
U26G A52U | 0.868
U26A G48C | 0.882
U26A G48A | 0.846
U26A C54U | 0.909
U26A U36G | 0.145
U26A U36A | 0.15

Variant | self-cleavage
U26A U36C | 0.403
U26A A42G | 0.72
U26A A42C | 0.797
U26C G28U | 0.139
U26C G28A | 0.108
U26C C33G | 0.474
U26C C33A | 0.826
G25U C63U | 0.173
G25U C63A | 0.129
U26C C66A | 0.585
U26C C66G | 0.692
U26A G37A | 0.287
U26A G37C | 0.209
U26A G37U | 0.222
U26G G31A | 0.555
U26C G47U | 1.01
U26C G47A | 0.957
U26C G47C | 0.978
U26C G30U | 0.304
U26C G30A | 0.749
G25C U67A | 0.129
G25C U67G | 0.24
U26C C54G | 0.871
U26C C54U | 1.03

Variant | self-cleavage
U26C C54A | 0.92
G25U G41A | 0.112
G25C U61G | 0.176
U26A U38G | 0.244
U26A U38C | 0.419
U26A U38A | 0.423
U26C A59G | 1.05
U26C A59U | 0.677
U26C A59C | 0.59
U26A C66U | 0.946
U26A C66A | 0.637
U26A C66G | 0.635
U26A U62A | 0.671
U26A G65A | 0.736
U26G C33G | 0.437
U26G C33A | 0.827
U26G C33U | 0.833
G25U C57U | 0.15
G25U C57A | 0.137
G25U C57G | 0.151
U26C U49G | 1.01
U26C U49C | 0.932
U26A G41C | 0.54
